Source: patent publication US8883734B2, “Proteasome-activating anti-aging peptides and compositions containing same” (ISP Investments Inc., priority 2009, dated 2014)
Ends that are not written are not given here.

Experiments:
[1] = tested on: Ki67 protein; experiment: Ki67 proliferation marker immunolabelling on experimentally aged keratinocytes in culture; type: cell-based, human; conditions: 1% peptide in medium; keratinocytes aged 20 days in culture; immunofluorescence
Experimental: A study of the activator effect of peptide SEQ ID No. 2 was carried out by evaluating the expression of the cellular proliferation marker protein on experimentally aged keratinocytes in culture. The analysis is carried out after 20 days of culture.
The keratinocytes are cultured for 20 days in a CO2 incubator at 37° C. under humidified atmosphere. The cells are treated directly by adding 1% peptide directly into the medium. Cells that are not treated but aged in the same manner are used as control cells. For experimental requirements, the cells are seeded in 8-well labteck, maintained in culture and treated in the same support until the day of labeling. On the day of immunolabelling, the cells are rinsed by using phosphate buffer and then fixed with cold methanol before labeling.
Immunolabelling is carried out by a rabbit anti-Ki67 antibody (Abcam) diluted to 1/1000th and a secondary antibody to 1/1000th coupled with an Alexa fluor monkey anti-rabbit fluorochrome (Molecular probes).
The slides are then mounted in a suitable medium and observed by epifluorescence microscope (Nikon Eclipse E E600).

[2] = target: T1, 20S proteasome (Homo sapiens, UniProt P28072+P28074+Q99436); experiment: Enzymatic activity of 20S proteasome on aged keratinocytes maintained in culture (AMC fluorogenic substrates); type: cell-based; conditions: 1% peptide in medium, renewed 3 times per week, 15 days culture
T1 construct: endogenous in cells; host or cells: experimentally aged normal human keratinocytes (NHK); crude cell lysate
Experimental: Experimentally aged keratinocytes maintained in culture for 15 days are treated with 1% of peptide SEQ ID No. 6. The enzymatic activities of 20S proteasome are then studied. In fact, 20S proteasome is the subunit responsible for enzymatic hydrolysis. Three enzymatic activities may be studied: Trypsin-like, chymotrypsin-like and peptidylglutamyl-peptide hydrolase (PGPH) activity. We are proposing to study these activities by a specific enzymatic assay of each activity.
The aged keratinocytes are maintained in culture for 15 days. The cell treatment is carried out by adding a solution at 1% of peptide SEQ ID No. 6 directly into the medium, renewed 3 times per week for the time of the experiment. The assay of each activity was carried out by using specific substrates labeled by a fluorescent compound 7-amido-4-methylcoumarin (AMC). After cleavage, the AMC excitation wavelength is 350 nm, the fluorescence is read at 440 nm. The fluorescence intensity is proportional to the quantity of fluorochrome obtained and consequently, this quantity is proportional to the quantity of hydrolyzed substrate.
The synthetic peptide Boc-Leu-Arg-Arg-AMC is specific for trypsin activity.
The synthetic peptide Suc-Leu-Leu-Val-Tyr-AMC (SEQ ID NO: 8) is specific for chymotrypsin activity.
The synthetic peptide Z-Leu-Leu-Glu-AMC is specific for peptidylglutamyl-peptide hydrolase activity.
The cells are detached from the support in an extraction buffer. Afterwards, the cells are sonicated for 1 minute at 4° C., and then centrifuged at 15000 g for 30 minutes at 4° C. The protein assay is carried out by the BCA kit (Pierce). After incubation of the cellular lysate with the synthetic substrate specific for the activity studied, fluorescence is read with the Synergy spectrophotometer (BIOTEK, Vermont, USA) at 440 nm.

[3] = tested on: beta-galactosidase; conditions: 1% peptide, 3 times per week; keratinocytes aged 20 days in culture; X-gal staining
Experimental: These cells are maintained in culture in a special keratinocyte-SFM medium (Invitrogen) at 37° C. under a humidified atmosphere of 5% CO2. Aged NHK cells are obtained by performing a series of repeated sub-cultures. Briefly the cells are seeded in 75 cm^2 flasks, at low density and cultured from 5 to 10 days between 2 passages. […] The cells are then maintained under these conditions for 45 days.
A study of the antiaging effect of the active principle was carried out by evaluating the expression of the beta-galactosidase protein on experimentally aged keratinocytes in culture.
Keratinocytes experimentally aged in 8-well labteck are cultured and maintained for 20 days in the presence or not of 1% peptide of SEQ ID No. 6. The treatment is carried out 3 times per week by direct addition into the medium.
Untreated cells are maintained in culture for the same experiment time and will be used as controls. On the day of labeling, the cells are rinsed and fixed in a 2% glutaraldehyde-2% formaldehyde mixture for 3 minutes. The cells are then rinsed and 300 μl of 5-bromo-4-chloro-3 indolyl b-D-galactosidase, commonly called X-gal (substrate of beta-galactosidase), is applied. Incubation is carried out for 24 hours in the CO2 incubator, and then the cells are rinsed and the labteck is quickly mounted in a suitable medium. Observation is carried out by transmission microscope. […]

Substance	Ki67 protein expression in aged and treated cells compared to untreated cells [1]	trypsin-like activity of 20S proteasome, increase ([2]; substrate Boc-Leu-Arg-Arg-AMC, p=0.033) [%]	chymotrypsin-like activity of 20S proteasome, increase ([2]; substrate Suc-Leu-Leu-Val-Tyr-AMC, p=0.0477) [%]	peptidylglutamyl-peptide hydrolase activity of 20S proteasome, increase ([2]; substrate Z-Leu-Leu-Glu-AMC, p=0.00053) [%]	beta-galactosidase activity in treated cells compared to untreated cells [3]
Leu-Arg-Lys-Gly-Met-NH2 (LRKGM-NH2) [SEQ ID No. 2]	increased the Ki67 protein	–	–	–	–
Arg-Lys-Gly-NH2 [SEQ ID No. 6]	–	155.3	130	144.6	strongly reduced
